Columns and labels:
[1] = target: Grb2 SH2 (UniProt P62993); assay: SH2 binding enrichment of the phosphorylated peptide, bacterial display (enrichment ratio); higher = better substrate or ligand; peptides without Tyr show the background
[2] = target: SHP2-C SH2; assay: as above
[3] = target: c-Src SH2; assay: as above
[4] = tested on: Fer (mouse); assay: phosphorylation enrichment, bacterial display (enrichment ratio); higher = better substrate or ligand; peptides without Tyr show the background
[5] = target: FGFR3 (UniProt P22607); assay: as above
Sequence of FGFR3 (P22607 whole entry, looked up): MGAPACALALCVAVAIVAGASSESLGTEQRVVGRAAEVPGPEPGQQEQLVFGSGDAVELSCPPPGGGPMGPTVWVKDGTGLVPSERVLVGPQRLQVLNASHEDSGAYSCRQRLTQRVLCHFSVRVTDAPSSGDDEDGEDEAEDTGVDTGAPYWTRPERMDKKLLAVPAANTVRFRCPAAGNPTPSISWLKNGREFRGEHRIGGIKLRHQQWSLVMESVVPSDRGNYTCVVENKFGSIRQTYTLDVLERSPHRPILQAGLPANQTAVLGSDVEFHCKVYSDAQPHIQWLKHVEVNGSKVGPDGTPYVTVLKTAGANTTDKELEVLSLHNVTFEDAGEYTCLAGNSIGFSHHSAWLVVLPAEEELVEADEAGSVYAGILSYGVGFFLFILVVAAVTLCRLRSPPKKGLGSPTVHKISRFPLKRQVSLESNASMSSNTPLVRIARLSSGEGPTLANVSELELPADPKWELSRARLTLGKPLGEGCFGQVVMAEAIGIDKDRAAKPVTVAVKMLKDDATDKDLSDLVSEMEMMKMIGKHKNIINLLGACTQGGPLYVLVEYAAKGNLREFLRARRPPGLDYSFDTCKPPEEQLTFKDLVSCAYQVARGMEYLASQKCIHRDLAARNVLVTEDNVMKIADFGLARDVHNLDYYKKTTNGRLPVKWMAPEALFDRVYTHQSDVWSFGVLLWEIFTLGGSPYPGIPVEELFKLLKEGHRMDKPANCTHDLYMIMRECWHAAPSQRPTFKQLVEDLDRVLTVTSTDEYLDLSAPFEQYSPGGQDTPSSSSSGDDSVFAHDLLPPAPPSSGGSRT

[6] = target: EPHB1 (UniProt P54762); assay: as above
Sequence of EPHB1 (P54762 whole entry, looked up): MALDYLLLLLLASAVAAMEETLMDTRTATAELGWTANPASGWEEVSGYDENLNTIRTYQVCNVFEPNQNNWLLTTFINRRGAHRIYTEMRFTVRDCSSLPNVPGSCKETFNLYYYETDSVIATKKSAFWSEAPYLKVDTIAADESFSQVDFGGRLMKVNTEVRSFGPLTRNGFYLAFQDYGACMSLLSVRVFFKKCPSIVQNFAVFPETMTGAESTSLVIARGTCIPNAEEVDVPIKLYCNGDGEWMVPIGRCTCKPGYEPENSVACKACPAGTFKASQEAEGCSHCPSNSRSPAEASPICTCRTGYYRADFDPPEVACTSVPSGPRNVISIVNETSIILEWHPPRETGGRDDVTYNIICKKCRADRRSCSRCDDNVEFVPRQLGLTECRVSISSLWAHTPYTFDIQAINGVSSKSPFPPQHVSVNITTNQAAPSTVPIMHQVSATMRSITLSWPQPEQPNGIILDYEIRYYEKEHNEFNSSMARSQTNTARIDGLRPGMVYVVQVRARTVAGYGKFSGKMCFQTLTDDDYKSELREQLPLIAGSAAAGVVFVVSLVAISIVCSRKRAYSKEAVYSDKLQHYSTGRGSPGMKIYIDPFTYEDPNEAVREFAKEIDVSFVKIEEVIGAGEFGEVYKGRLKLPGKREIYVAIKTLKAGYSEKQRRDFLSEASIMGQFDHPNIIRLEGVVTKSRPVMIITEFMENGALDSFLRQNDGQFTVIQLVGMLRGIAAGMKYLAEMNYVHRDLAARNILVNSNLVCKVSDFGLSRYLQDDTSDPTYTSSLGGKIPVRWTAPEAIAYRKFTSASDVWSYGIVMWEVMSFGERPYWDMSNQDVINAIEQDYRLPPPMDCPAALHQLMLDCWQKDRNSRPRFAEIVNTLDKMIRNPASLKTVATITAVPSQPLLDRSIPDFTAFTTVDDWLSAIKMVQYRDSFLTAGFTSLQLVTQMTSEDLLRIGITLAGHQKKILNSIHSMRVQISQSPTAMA

[7] = tested on: c-Abl (mouse); assay: as above
[8] = target: FGFR1 (UniProt P11362); assay: as above
Sequence of FGFR1 (P11362 whole entry, looked up): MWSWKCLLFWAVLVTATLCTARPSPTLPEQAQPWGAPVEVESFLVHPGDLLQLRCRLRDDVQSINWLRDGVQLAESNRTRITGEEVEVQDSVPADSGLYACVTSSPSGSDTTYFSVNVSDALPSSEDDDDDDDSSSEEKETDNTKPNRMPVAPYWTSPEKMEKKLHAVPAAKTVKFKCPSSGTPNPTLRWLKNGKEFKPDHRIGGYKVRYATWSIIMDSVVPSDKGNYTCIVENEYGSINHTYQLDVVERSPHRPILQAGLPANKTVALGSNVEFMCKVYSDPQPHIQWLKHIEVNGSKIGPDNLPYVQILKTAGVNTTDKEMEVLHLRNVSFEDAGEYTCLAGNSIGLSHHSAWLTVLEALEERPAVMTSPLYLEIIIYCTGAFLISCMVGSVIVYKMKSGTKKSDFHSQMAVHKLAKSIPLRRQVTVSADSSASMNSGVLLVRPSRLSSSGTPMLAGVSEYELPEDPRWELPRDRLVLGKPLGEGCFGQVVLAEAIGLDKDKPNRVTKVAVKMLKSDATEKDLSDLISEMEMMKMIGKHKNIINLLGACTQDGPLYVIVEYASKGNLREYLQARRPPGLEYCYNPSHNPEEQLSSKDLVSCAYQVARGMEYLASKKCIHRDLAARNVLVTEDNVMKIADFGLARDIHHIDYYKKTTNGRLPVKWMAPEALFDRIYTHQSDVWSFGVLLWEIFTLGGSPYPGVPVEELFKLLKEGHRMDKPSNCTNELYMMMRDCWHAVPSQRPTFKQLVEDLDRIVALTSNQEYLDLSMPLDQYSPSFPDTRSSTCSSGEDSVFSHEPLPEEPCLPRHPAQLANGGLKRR

[9] = target: MERTK (UniProt Q12866); assay: as above
[10] = target: Fes (UniProt P07332); assay: as above
[11] = target: EPHB2 (UniProt P29323); assay: as above
[12] = target: Jak2 (UniProt O60674); assay: as above
Sequence of Jak2 (O60674 whole entry, looked up): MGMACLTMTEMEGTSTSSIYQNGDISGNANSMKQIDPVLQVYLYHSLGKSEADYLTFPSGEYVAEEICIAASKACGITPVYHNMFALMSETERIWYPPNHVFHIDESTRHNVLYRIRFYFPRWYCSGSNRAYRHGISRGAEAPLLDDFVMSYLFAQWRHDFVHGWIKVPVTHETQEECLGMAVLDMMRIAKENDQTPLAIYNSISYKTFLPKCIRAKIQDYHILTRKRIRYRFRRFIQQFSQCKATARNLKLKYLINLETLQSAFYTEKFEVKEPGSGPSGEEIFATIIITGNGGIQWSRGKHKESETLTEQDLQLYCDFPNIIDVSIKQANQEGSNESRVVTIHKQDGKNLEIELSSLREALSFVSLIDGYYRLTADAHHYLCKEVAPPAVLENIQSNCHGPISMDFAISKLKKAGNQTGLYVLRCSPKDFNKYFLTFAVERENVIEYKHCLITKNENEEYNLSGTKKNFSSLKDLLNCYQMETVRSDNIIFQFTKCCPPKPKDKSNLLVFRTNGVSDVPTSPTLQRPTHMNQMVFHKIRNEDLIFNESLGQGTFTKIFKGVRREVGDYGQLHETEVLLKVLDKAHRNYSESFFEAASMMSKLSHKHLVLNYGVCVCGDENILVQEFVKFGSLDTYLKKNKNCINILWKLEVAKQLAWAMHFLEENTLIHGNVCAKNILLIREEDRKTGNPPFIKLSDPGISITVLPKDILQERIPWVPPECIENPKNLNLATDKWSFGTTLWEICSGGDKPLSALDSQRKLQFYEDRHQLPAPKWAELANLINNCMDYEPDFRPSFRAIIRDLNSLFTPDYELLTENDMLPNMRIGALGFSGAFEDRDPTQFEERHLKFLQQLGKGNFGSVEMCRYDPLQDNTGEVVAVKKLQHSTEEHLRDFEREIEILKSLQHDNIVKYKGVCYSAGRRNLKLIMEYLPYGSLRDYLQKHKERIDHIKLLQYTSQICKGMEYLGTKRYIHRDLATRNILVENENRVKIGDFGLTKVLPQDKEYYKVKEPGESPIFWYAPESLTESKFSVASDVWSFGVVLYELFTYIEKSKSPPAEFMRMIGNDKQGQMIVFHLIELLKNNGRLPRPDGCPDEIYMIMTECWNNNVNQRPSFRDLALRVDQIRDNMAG

[13] = target: Hck (UniProt P08631); assay: as above
Sequence of Hck (P08631 whole entry, looked up): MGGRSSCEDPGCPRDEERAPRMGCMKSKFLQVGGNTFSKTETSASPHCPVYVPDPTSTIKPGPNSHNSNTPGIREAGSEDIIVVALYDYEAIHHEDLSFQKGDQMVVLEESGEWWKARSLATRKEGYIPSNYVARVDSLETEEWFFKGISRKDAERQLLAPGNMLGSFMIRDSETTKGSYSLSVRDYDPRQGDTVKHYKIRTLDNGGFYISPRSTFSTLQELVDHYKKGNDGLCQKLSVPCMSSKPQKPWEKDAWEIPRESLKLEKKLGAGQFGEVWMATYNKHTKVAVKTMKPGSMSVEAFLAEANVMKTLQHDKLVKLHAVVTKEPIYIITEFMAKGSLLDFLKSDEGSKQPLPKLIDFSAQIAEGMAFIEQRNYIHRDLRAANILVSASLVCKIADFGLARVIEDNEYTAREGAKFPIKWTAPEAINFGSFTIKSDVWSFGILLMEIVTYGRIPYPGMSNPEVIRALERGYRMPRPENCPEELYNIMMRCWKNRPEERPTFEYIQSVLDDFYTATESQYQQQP

[14] = target: Fyn (UniProt P06241); assay: as above
Sequence of Fyn (P06241 whole entry, looked up): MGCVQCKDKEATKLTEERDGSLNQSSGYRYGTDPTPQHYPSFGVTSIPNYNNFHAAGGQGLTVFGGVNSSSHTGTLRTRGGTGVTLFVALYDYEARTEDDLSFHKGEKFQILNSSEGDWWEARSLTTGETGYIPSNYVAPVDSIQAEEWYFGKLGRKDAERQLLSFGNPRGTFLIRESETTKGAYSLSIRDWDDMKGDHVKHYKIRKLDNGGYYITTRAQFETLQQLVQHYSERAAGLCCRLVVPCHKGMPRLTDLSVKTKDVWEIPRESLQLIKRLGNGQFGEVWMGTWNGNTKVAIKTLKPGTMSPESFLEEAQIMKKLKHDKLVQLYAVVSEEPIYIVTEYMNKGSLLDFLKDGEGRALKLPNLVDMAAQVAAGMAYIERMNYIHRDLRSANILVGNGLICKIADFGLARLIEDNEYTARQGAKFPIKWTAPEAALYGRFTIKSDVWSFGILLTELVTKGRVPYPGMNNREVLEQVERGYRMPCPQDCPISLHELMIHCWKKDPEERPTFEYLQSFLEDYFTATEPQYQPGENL

[15] = tested on: AncSZ; assay: as above
[16] = tested on: c-Src; assay: as above
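For SH2 binding enrichment of the phosphorylated peptide, bacterial display in this document: peptide library displayed on the E. coli surface as eCPX fusions, selected cells deep-sequenced, score is each peptide's frequency after selection divided by its frequency in the input.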
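For phosphorylation enrichment, bacterial display in this document: 11-residue human phosphosite peptides and single-mutation variants displayed on the E. coli surface, counted by deep sequencing, each peptide's frequency after selection divided by its frequency in the unselected input library; frequency after pTyr selection over input frequency; kinase dosed for 20-30% of maximal phosphorylation in three min.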

Sequence of Grb2 SH2 (P62993 whole entry, looked up): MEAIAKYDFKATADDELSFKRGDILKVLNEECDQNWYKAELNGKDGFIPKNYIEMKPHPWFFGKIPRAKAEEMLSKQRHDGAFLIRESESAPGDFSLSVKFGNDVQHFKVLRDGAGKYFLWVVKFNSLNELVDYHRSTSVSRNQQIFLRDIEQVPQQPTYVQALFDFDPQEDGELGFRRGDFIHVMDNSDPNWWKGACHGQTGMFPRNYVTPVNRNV

Sequence	SH2 binding enrichment [1]	SH2 binding enrichment [2]	SH2 binding enrichment [3]	phosphorylation enrichment [4]	phosphorylation enrichment [5]	phosphorylation enrichment [6]	phosphorylation enrichment [7]	phosphorylation enrichment [8]	phosphorylation enrichment [9]	phosphorylation enrichment [10]	phosphorylation enrichment [11]	phosphorylation enrichment [12]	phosphorylation enrichment [13]	phosphorylation enrichment [14]	phosphorylation enrichment [15]	phosphorylation enrichment [16]
HNQDDYSYPSR [LDLR_Y845_G844D]	1.29	0.616	0.829	0.567	0.79	1.2	0.776	0.82	0.653	0.856	2.52	0.751	0.651	0.664	5.73	0.597
HNQDGYSYPSR [LDLR_Y845]	1.07	0.707	6.74	0.738	0.886	0.55	0.823	0.614	0.913	0.826	0.584	0.831	0.618	0.836	1.25	0.661
HNVPIYEGYAL [ACTA1_Y168]	0.881	1.01	2.97	24.7	0.616	26	13.2	0.792	13.1	5.3	35.1	1.06	15.1	16.9	1.56	12.6
HQPGEYLFHAE [FLT3_Y416_I417L]	0.742	1.19	0.514	0.554	0.691	0.527	1.21	0.628	0.617	1.13	0.724	1.29	0.756	0.481	1.09	0.879
HSDDDYDDPEL [CLNK_Y69]	0.779	0.829	0.607	0.399	0.756	0.477	1.06	0.646	0.664	1.74	0.719	1.48	0.846	0.439	1.67	0.753
HSDFQYGQRSQ [PKP2_Y168_S169G_YF]	0.737	0.675	0.394	0.78	0.639	0.632	0.509	0.495	0.511	1.25	0.628	0.727	0.587	0.766	0.641	0.682
HYMELYDLNRD [BBS2_Y648_R643H]	1.07	1.33	2.44	1.28	2.94	2.98	0.862	3.57	4.26	1.22	1.45	1.22	2.89	2.58	1.5	6.4
ICGVSYDEFRF [CFTR_Y512_F508C_YF]	0.838	0.664	0.847	1.17	0.967	0.663	1.03	0.553	0.571	1.5	0.642	1.21	0.842	0.764	1.51	1.49
IDAVCYYRMEN [NPHS2_Y194_I192V]	0.661	0.49	0.421	0.729	3.39	0.865	1.22	3.5	0.845	1.51	0.745	4.36	0.862	0.888	1.96	2.48
IEDPFYGNDFD [ACP1_Y133_S137F_YF]	1.09	0.753	0.736	0.509	0.806	0.83	0.79	0.548	0.392	1.21	0.644	0.972	0.595	0.566	1.27	0.544
IEEGTYGVAFR [CDK11B_Y449_V452A_YF]	0.612	0.51	0.374	4.45	0.915	0.888	0.982	0.465	1.6	1.11	2.24	0.859	6.06	7.47	1.32	5.45
IEKLTYIDEWF [CPS1_Y872_K875E]	0.698	0.719	0.488	0.548	0.737	0.624	0.81	0.567	0.488	1.35	0.557	1.17	0.472	0.453	1.18	0.544
IFLENYNAGTY [CFI_Y421_H418L]	0.937	0.777	0.668	0.558	0.897	0.656	0.665	0.481	0.403	1.04	0.443	0.786	0.543	0.415	0.846	0.687
IGEGTYGTVFK [CDK5_Y15]	0.699	0.703	0.434	1.41	0.58	0.989	0.676	0.515	0.825	0.793	2.08	0.788	9.06	10.4	0.707	6.34
IGHHAYGDQYR [IDH1_Y135_R132H]	0.724	0.538	0.629	0.386	0.342	0.426	0.467	0.389	0.421	0.537	0.363	0.448	0.439	0.355	0.564	0.418
IGNGFYFHVFS [MYBPC3_Y1136_R1138H_YF]	0.982	0.7	0.484	0.449	0.757	0.639	1.04	0.472	0.419	1.31	0.643	1.28	0.423	0.4	1.06	0.381
IINENYDFLKG [NUP98_Y1664_YF]	0.831	0.737	0.755	0.466	0.631	0.677	0.57	0.518	0.602	0.903	0.726	0.761	1.19	0.426	0.82	0.495
IIWDSYTTNEM [GNB4_Y85_K89E]	0.896	0.752	0.739	0.705	0.903	0.787	0.829	0.678	0.411	1.43	0.795	1.39	0.54	0.747	1.48	0.57
IKIMGYSIRTI [IDS_Y490]	1.4	1.02	0.816	0.478	0.657	0.494	0.822	0.424	0.455	1.01	0.52	0.862	0.457	0.452	0.991	0.571
ILDEAYVMAGV [ERBB2_Y772]	0.935	0.651	0.494	0.448	0.642	0.439	0.577	0.622	0.441	0.916	0.487	0.832	0.532	0.555	1.11	0.694
IMITGYLLLFR [INSR_Y87_D86G]	2.37	1.83	0.899	0.593	0.866	0.521	1.13	0.721	0.668	1.4	0.547	1.02	0.57	0.63	1.19	0.419
INPIIYAFVGE [CCR5_Y297]	0.776	0.6	0.46	6.77	2.75	10.7	10.4	3.48	7.72	2.02	9.51	1.03	6.19	6.13	1.17	4.84
IPQEEYKATGL	0.763	0.777	0.564	0.531	0.677	0.706	0.776	0.527	0.492	1.18	0.635	0.93	0.631	0.497	0.84	0.535
IRKDLYANNVM [ACTA1_Y296]	1.21	0.381	0.732	0.436	0.588	0.605	0.576	0.447	0.413	0.863	0.527	0.772	0.572	0.488	0.559	0.419
IRTDAYVRAMT [RPE65_Y89]	0.761	0.527	0.467	0.398	0.482	0.438	0.522	0.444	0.402	0.605	0.458	0.481	0.414	0.463	0.515	0.382
ISKILYHIIKG [CDH17_Y489_S484I]	1.75	2	3.02	0.379	0.601	0.679	0.601	0.651	1.11	0.823	0.535	0.783	0.508	0.449	0.779	0.551
ISKQGYDEAGP [ACTC1_Y364_E363G]	0.916	0.613	1.42	0.507	0.567	0.601	0.793	0.539	0.666	1.01	0.532	0.931	0.572	0.452	0.897	0.541
ISRDVYSTDFF [NTRK2_Y702_M697I_YF]	0.712	0.715	0.505	0.568	0.855	0.866	0.666	0.934	5.74	0.929	0.819	0.785	1.35	3.12	0.903	2.84
ITLKGYNLSKS [GNPTAB_Y728]	0.614	0.484	0.321	0.414	0.402	0.342	0.317	0.397	0.367	0.686	0.346	0.482	0.426	0.355	0.601	0.451
